We go through 1 molecule from patent US20130064837A1 (University of California, published 2013).

The target in assay [1] is T1, mouse integrin β8 (mouse, UniProt Q0VBD0 22-767, limits assumed).
T1 construct: also called itgb8; M itgb8
T1 sequence (looked up): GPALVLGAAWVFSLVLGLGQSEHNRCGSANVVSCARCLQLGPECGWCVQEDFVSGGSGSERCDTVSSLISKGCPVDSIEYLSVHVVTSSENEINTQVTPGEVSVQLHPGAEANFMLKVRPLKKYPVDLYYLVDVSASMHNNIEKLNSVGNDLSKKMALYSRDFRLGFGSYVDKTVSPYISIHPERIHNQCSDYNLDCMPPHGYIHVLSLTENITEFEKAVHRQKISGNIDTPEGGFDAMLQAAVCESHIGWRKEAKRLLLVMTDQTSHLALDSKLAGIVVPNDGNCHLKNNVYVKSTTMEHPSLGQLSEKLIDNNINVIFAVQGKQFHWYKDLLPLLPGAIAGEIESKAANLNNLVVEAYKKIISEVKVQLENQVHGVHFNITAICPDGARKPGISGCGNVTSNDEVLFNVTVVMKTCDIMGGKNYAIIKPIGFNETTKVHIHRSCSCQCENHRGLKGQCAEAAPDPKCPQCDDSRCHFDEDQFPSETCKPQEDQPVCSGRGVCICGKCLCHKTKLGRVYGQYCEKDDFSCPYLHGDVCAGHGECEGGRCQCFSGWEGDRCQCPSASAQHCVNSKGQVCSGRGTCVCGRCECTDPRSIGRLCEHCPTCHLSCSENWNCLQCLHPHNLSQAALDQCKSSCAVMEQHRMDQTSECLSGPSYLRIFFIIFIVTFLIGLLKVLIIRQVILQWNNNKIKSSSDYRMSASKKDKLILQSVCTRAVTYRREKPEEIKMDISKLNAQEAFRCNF
Put plainly: antibody binding, cell surface staining, flow cytometry (mouse/human chimeric β8 constructs). An excerpt: (§1) Chimeric integrin β8 constructs, which swapped mouse sequences into human ITGB8 were used to localize the 37E1B5 binding epitope. The epitope was localized by antibody binding, cell surface staining, and detection by flow cytometry. The 37E1B5 epitope is encompassed within amino acids 74-180 of human integrin β8. 37E1B5 binds to human, but not to mouse β8. Therefore, at least one of the 9 non-conservative amino acid differences or 7 minor amino acid differences (indicated by + in the middle line of the sequence) are included in the binding epitope. These domains reflect portions of what are known in the field as the Psi, hybrid and the alpha1 helix of the Beta-I domain of the integrin β8 subunit, and are found on the surface of the molecule.
Background: A flow cytometer gives signals particle by particle.

For assay [2], the target named is human integrin αvβ8 (human, UniProt P06756 31-1048; P26012 43-769). Put plainly: cell staining and flow cytometry on primary human articular chondrocytes. The procedure: Adult articular cartilage was harvested from the joint space of knee from a patient undergoing elective repair of a knee for chronic osteoarthritis. Primary chondrocytes were grown to 70% confluence and the integrin receptor expression determined by cell staining and flow cytometry. The antibodies used were anti-β8 (37E1B5), and anti-β6 (E7P6). […] Primary chondrocytes were co-cultured with TMLC TGF-β reporter cells (Annes et al. (2004) J. Cell Biol. 165:723) in a TGF-β bioassay in the presence or absence of anti-β8 (37E1B5) or neutralizing anti-β6. Anti-β8 produced a robust blockade of TGF-β activation while anti-β6 produced no such effect.
Chain of human integrin αvβ8 (P06756 31-1048, chain 1 of 2): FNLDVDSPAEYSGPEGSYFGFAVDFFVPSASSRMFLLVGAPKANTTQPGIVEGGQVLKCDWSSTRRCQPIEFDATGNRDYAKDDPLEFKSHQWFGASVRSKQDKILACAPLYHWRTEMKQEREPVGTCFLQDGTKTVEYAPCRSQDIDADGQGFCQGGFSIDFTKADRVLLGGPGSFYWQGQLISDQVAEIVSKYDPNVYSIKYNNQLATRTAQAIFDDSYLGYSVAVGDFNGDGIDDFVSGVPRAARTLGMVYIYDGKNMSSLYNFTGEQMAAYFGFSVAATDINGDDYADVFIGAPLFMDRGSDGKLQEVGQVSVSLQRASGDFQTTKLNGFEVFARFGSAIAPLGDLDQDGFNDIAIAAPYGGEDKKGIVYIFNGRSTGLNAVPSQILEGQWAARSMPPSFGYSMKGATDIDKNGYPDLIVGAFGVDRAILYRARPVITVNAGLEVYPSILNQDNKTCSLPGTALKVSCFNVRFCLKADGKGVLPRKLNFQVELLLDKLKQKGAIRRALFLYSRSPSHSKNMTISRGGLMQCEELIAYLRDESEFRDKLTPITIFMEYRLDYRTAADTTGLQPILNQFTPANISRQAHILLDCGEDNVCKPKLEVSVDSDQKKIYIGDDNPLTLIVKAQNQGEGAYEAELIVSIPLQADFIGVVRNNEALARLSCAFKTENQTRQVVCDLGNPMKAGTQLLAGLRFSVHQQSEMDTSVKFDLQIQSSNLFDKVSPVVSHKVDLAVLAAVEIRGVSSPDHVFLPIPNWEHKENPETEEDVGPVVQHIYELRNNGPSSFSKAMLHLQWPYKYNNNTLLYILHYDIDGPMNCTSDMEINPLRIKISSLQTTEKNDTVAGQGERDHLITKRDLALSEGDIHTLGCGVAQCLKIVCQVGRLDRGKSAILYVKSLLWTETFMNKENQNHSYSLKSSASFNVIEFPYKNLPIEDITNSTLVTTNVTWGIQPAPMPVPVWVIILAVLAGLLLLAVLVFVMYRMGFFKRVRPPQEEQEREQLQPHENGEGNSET
Chain of human integrin αvβ8 (P26012 43-769, chain 2 of 2): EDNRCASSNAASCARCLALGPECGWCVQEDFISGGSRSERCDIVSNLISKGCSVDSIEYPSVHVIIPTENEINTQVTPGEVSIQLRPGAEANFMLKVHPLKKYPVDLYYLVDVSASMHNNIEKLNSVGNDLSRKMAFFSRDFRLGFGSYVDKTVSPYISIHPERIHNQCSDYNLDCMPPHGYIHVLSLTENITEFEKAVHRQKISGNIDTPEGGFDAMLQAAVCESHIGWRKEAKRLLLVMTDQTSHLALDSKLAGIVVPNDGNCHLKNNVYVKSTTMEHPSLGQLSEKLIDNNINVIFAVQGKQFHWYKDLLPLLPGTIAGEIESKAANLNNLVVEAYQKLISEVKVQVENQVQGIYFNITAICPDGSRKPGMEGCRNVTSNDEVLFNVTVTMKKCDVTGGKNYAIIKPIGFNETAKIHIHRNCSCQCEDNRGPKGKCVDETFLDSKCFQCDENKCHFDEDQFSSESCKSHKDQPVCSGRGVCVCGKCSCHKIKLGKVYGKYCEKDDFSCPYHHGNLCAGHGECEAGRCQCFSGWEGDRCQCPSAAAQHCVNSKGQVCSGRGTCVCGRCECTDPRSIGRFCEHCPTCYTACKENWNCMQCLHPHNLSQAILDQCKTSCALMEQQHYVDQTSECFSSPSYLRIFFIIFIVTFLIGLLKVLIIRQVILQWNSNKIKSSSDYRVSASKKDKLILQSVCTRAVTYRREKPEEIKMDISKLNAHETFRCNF

The target of assay [3] is T2, human integrin β8 (human, UniProt P26012 43-769).
T2 construct: whole, on cells; also called ITGB8; H ITGB8
T2 sequence (P26012 43-769): as the sequence (P26012 43-769, chain 2 of 2) above
In words: antibody binding, cell surface staining, flow cytometry.
Text: as §1

B1: 37E1B5 (antibody, V domains shown)
VH: EVQLVESGGGLVQPGGSLNLSCAVSGFVFSRYWMSWVRQAPGKGLEWIGEINPDSSTINYTSSLKDKFIISRDNAKNTLYLQMNKVRSEDTALYYCACLITTEDYWGQGTSVTVSS
VL: QIVLTQSPSSMYASLGERVTIPCKASQDINSYLSWFQQKPGKSPKTLIYYANRLVDGVPSRFSGSGSGQDYSLTISSLEYEDMGIYYCLQYDEFPYTFGGGTKLEIK
notes: Three versions were made in CHO cells: mouse IgG1, mouse IgG2a and partially humanized IgG1; also called 37E1B5 antibody; anti-β8 (37E1B5)
In the case of B1, the binding result is listed as “no binding” in assay [1], “binds” in assay [2] and “binds” in assay [3].
